Results as given in article PMC13095208, “Structural mechanisms of pump assembly and drug transport in the AcrAB–TolC efflux system” (eLife, 2026).

Target: the molecule itself
Experiment: cryo-EM structure

B1: AcrA, periplasmic membrane fusion protein of Escherichia coli (natural protein)
chain: CDDKQAQQGGQQMPAVGVVTVKTEPLQITTELPGRTSAYRIAEVRPQVSGIILKRNFKEGSDIEAGVSLYQIDPATYQATYDSAKGDLAKAQAAANIAQLTVNRYQKLLGTQYISKQEYDQALADAQQANAAVTAAKAAVETARINLAYTKVTSPISGRIGKSNVTEGALVQNGQATALATVQQLDPIYVDVTQSSNDFLRLKQELANGTLKQENGKAKVSLITSDGIKFPQDGTLEFSDVTVDQTTGSITLRAIFPNPDHTLLPGMFVRARLEEGLNPNAILVPQQGVTRTPRGDATVLVVGADDKVETRPIVASQAIGDKWLVTEGLKAGDRVVISGLQKVRPGVQVKAQEVTADNNQQAASGAQPEQSKS
- stoichiometry N: 6 protomers
